Substitutions are numbered along the chain they refer to.

In assay [1] the target is T1, human CD33 (human, UniProt P20138 18-259, limits assumed).
T1 construct: Human CD33 immobilized on the BLI sensor tip or the BIAcore C1 chip; also called Siglec-3
Put plainly: BLI (ForteBio), CD33 on tip, Fab 100 nM. As to the method:
(§1) The affinities (KD) of the humanized antibodies for human CD33 were measured for each antibody by BioLayer Interferometry in a ForteBio assay according to standard techniques (Estep et al. (2013) MAbs 5(2): 270-8). […] The assay was carried out at room temperature.
(§2) The affinities of AB-H14 and its affinity-matured variants (Table 15) and AB-H63 and its affinity-matured variants (Table 16), for human CD33 were measured by Fortebio assay according to the method described in Example 1 above.

Assay [2] has as its target T1, human CD33. Put plainly: BLI (ForteBio), Fab; column looks row-shifted against KD. As to the method: as §1, §2

T1 sequence (P20138 18-259 limits assumed): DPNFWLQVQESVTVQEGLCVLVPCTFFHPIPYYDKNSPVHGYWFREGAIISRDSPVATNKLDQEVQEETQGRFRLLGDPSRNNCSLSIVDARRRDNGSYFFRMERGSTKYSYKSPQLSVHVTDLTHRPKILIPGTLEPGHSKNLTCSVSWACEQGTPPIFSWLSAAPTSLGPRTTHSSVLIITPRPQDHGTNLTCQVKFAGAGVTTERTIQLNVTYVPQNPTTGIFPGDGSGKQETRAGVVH

B1: AB-14.1 (antibody, V domains shown)
VH: QVQLVQSGAEVKKPGASVKVSCKASGATFTDYNFHWVRQAPGQGLEWIGFIYPSNGITGYAQDFQGRVTMTVDTSTSTVYMELSSLRSEDTAVYYCARSDVDYFDYWGQGTLVTVSS
VL: DIQMTQSPSSLSASVGDRVTITCRASQSVSTSTYSYMHWYQQKPGKAPKLLIKYASNLESGVPSRFSGSGSGTDFTLTISSLQPEDFATYYCQHSWEIPLTFGQGTKLEIK
In assay [1], B1 registered a Kd of 0.299 nM and a dissociation rate constant (koff) of 0.0002 s⁻¹.

B2: AB-63.11 (antibody, V domains shown)
VH: B1 VH with A27Y, S54A, D63K, F64D
VL: DIVLTQSPDSLAVSLGERATINCRASQDVSTSTYSYMHWYQQKPGQPPKLLIKYASNLESGVPDRFSGSGSGTDFTLTISSLQAEDVAVYYCQHSWEIPLTFGQGTKLEIK
On to B2, for which, in assay [2], the dissociation rate constant (koff) came to 0.0002 s⁻¹ and the kon turned out to be 913000 M⁻¹ s⁻¹.

B3: AB-63.7 (antibody, V domains shown)
VH: B1 VH with A27Y, F34L, D63K, D100T
VL: B2 VL with S56F, T101E
For B3, in assay [2], the koff came out at 0.000581 s⁻¹ and the kon amounted to 809000 M⁻¹ s⁻¹.

B4: AB-63.18 (antibody, V domains shown)
VH: B1 VH with A16S, A27Y, F29H, F34L, D63K
VL: B2 VL with D28S, A55E
For the molecule B4, in assay [2], the off-rate (koff) turned out to be 0.000204 s⁻¹ and the kon came out at 903000 M⁻¹ s⁻¹.

B5: AB-63.12 (antibody, V domains shown)
VH: B1 VH with A27Y, D63K, Q65T, D100T, Y106D
VL: B2 VL with L58V, E97A
Consider B5, for which, in assay [2], the kon is 738000 M⁻¹ s⁻¹.

B6: AB-63.15 (antibody, V domains shown)
VH: B1 VH with A27Y, F34Y, D63K, Y106L
VL: B2 VL with L58V, K111E
Turning to B6, in assay [2], the off-rate constant (koff) came to 0.0002 s⁻¹ and the kon worked out at 723000 M⁻¹ s⁻¹.

B7: AB-63.9 (antibody, V domains shown)
VH: B1 VH with A27Y, T28A, F34L, D63K
VL: B2 VL with N57Y, Q93E
Take B7: in assay [2], the kon was 658000 M⁻¹ s⁻¹.

B8: AB-63.8 (antibody, V domains shown)
VH: B1 VH with A16S, A27V, F34Y, D63K, G66D, D100T
VL: B2 VL
Regarding B8, in assay [2], the koff amounted to 0.000524 s⁻¹ and the kon stood at 847000 M⁻¹ s⁻¹.

B9: AB-63.6 (antibody, V domains shown)
VH: B1 VH with A27Y, F34L, D63K, D100T
VL: B2 VL
With B9, in assay [2], the off-rate constant (koff) was found to be 0.00176 s⁻¹ and the on-rate constant (kon) was determined as 679000 M⁻¹ s⁻¹.

B10: AB-63.14 (antibody, V domains shown)
VH: B1 VH with A16S, A27Y, F34L, D63K
VL: B2 VL with N22D, R24K
As for B10, in assay [2], the koff came out at 0.000322 s⁻¹ and the on-rate constant (kon) turned out to be 839000 M⁻¹ s⁻¹.

B11: AB-63.5 (antibody, V domains shown)
VH: B1 VH with A27Y, F34N, D63K
VL: B2 VL with D28S
B11: in assay [2], the off-rate constant (koff) came out at 0.00155 s⁻¹ and the kon came to 776000 M⁻¹ s⁻¹.

B12: AB-63.4 (antibody, V domains shown)
VH: B1 VH with A27Y, F34Y, D63K, D100T
VL: B2 VL with D28S
Take B12: in assay [2], the dissociation rate constant (koff) stood at 0.00112 s⁻¹ and the on-rate constant (kon) came out at 602000 M⁻¹ s⁻¹.

B13: AB-63.10 (antibody, V domains shown)
VH: B1 VH with A27Y, F29E, F34L, D63K
VL: B2 VL with I98L
In the case of B13, in assay [2], the koff was 0.000546 s⁻¹ and the on-rate (kon) is 596000 M⁻¹ s⁻¹.

B14: AB-63.13 (antibody, V domains shown)
VH: B1 VH with A27Y, F34L, T58R, D63K
VL: B2 VL with D28S, W96E
B14: in assay [2], the off-rate constant (koff) was 0.000336 s⁻¹ and the association rate constant (kon) was found to be 721000 M⁻¹ s⁻¹.

Values taken from patent US20190040131A1 (published 2019).
